Results: PMC8865267 (mAbs, 2022)
Like-named read-outs stand apart in the source and are kept apart here.

B1: Ipi.105 IgG1, non-fucosylated (antibody, V domains shown)
VH: QVQLVESGGGVVQPGRSLRLSCAASGFTFSHYTMHWVRQAPGKGLEWVTFISYDGHNKYYADSVKGRFTISRDNSKNTLYLQMNSLRAEDTAIYYCARTGWLGPFDYWGQGTLVTVSS
VL: EIVLTQSPGTLSLSPGERATLSCRASQEVGESELAWYQQKPGQAPRLLIYGAFSRATGIPDRFSGSGSGTDFTLTISRLEPEDFAVYYCQQYGSSPWTFGQGTKVEIK
B2: Ipi.105 Fab (Fab, V domains shown)
VH: QVQLVESGGGVVQPGRSLRLSCAASGFTFSHYTMHWVRQAPGKGLEWVTFISYDGHNKYYADSVKGRFTISRDNSKNTLYLQMNSLRAEDTAIYYCARTGWLGPFDYWGQGTLVTVSS
VL: EIVLTQSPGTLSLSPGERATLSCRASQEVGESELAWYQQKPGQAPRLLIYGAFSRATGIPDRFSGSGSGTDFTLTISRLEPEDFAVYYCQQYGSSPWTFGQGTKVEIK
B3: Ipi.106 IgG1, non-fucosylated (antibody, V domains shown)
VH: QVQLVESGGGVVQPGRSLRLSCAASGFTFSHYTMHWVRQAPGKGLEWVTFISYDGHNKYYADSVKGRFTISRDNSKNTLYLQMNSLRAEDTAIYYCARHGWLGPFDYWGQGTLVTVSS
VL: EIVLTQSPGTLSLSPGERATLSCRASQEVGESELAWYQQKPGQAPRLLIYGAFSRATGIPDRFSGSGSGTDFTLTISRLEPEDFAVYYCQQYGSSPWTFGQGTKVEIK
B4: Ipi.106 Fab (Fab, V domains shown)
VH: QVQLVESGGGVVQPGRSLRLSCAASGFTFSHYTMHWVRQAPGKGLEWVTFISYDGHNKYYADSVKGRFTISRDNSKNTLYLQMNSLRAEDTAIYYCARHGWLGPFDYWGQGTLVTVSS
VL: EIVLTQSPGTLSLSPGERATLSCRASQEVGESELAWYQQKPGQAPRLLIYGAFSRATGIPDRFSGSGSGTDFTLTISRLEPEDFAVYYCQQYGSSPWTFGQGTKVEIK

Tests used:
[1] = target: human CTLA-4 with C-terminal Myc, poly-histidine and BirA biotinylation tag (Homo sapiens (Human).) (UniProt P16410); assay: SPR
[2] = target: CTLA-4 on BW cells expressing ~2,000 CTLA-4 receptor copies (Homo sapiens (Human)., UniProt P16410); assay: flow cytometry on cells
[3] = target: CTLA-4 of activated primary human CD4+CD25+ T cells (human (endogenous in primary CD4+CD25+ …, UniProt P16410)); assay: flow cytometry on cells
[4] = target: T1, human CTLA-4 with C-terminal poly-histidine tag (crystallography construct) (human, UniProt P16410, glycans trimmed with EndoH); assay: crystal structure
[5] = target: T1, human CTLA-4 with C-terminal …; assay: crystal structure; remark: listed apart in the source

CTLA-4 on BW cells expressing ~2,000 CTLA-4 receptor copies, sequence (P16410 36-223): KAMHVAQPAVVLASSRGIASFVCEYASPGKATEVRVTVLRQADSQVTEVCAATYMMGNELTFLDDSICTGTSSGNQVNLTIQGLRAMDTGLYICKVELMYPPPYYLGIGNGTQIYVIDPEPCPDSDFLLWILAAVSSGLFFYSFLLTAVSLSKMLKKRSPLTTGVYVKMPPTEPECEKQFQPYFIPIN
CTLA-4 of activated primary human CD4+CD25+ T cells (human, sequence (P16410 36-223): as above
T1 sequence (P16410 36-161): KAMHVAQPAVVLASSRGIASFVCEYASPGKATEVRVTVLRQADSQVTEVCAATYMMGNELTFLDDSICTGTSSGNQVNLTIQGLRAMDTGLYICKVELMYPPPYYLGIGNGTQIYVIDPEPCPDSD

Molecule	binding result [2]	binding result [3]	also measured
ipilimumab Fab	–	–	Kd [1]: 40 nM
B1	binds	binds	–
B2	–	–	binding result [4]: binds
B3	binds	binds	–
B4	–	–	binding result [5]: binds
